From publication doi:10.1101/2023.08.25.554913 (bioRxiv, 2023)

Target: the molecule itself
Assay: SEC

B1: PfuAmyGT (PF0272) from Pyrococcus furiosus, wild type (enzyme, UniProt P49067 1-649, looked up)
chain: MGDKINFIFGIHNHQPLGNFGWVFEEAYEKCYWPFLETLEEYPNMKVAIHTSGPLIEWLQDNRPEYIDLLRSLVKRGQVEIVVAGFYEPVLASIPKEDRIEQIRLMKEWAKSIGFDARGVWLTERVWQPELVKTLKESGIDYVIVDDYHFMSAGLSKEELYWPYYTEDGGEVIAVFPIDEKLRYLIPFRPVDKVLEYLHSLIDGDESKVAVFHDDGEKFGIWPGTYEWVYEKGWLREFFDRISSDEKINLMLYTEYLEKYKPRGLVYLPIASYFEMSEWSLPAKQARLFVEFVNELKVKGIFEKYRVFVRGGIWKNFFYKYPESNYMHKRMLMVSKLVRNNPEARKYLLRAQCNDAYWHGLFGGVYLPHLRRAIWNNLIKANSYVSLGKVIRDIDYDGFEEVLIENDNFYAVFKPSYGGSLVEFSSKNRLVNYVDVLARRWEHYHGYVESQFDGVASIHELEKKIPDEIRKEVAYDKYRRFMLQDHVVPLGTTLEDFMFSRQQEIGEFPRVPYSYELLDGGIRLKREHLGIEVEKTVKLVNDGFEVEYIVNNKTGNPVLFAVELNVAVQSIMESPGVLRGKEIVVDDKYAVGKFALKFEDEMEVWKYPVKTLSQSESGWDLIQQGVSYIVPIRLEDKIRFKLKFEEASG
stoichiometry N: 2
